Patent publication US20150098939A1 (Sanofi, published 2015)

Legend:
[1] = target: T1, human GPVI protein, soluble extracellular domain (D1 and D2) (human, UniProt Q9HCN6 21-267); test: SPR (Biacore 3000), human GPVI immobilised, Fab analyte
T1 construct: extracellular domain; also called hGPVI; human glycoprotein VI
T1 sequence (looked up): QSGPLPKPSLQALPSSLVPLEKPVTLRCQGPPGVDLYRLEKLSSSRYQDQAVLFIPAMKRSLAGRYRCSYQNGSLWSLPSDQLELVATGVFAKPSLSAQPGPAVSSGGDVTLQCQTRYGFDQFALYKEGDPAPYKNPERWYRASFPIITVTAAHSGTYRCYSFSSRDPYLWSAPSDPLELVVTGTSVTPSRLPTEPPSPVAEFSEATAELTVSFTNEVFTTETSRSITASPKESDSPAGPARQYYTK
Protocol: Surface plasmon resonance technology on a Biacore 3000 (GE Healthcare) was used for detailed kinetic characterisation of purified antibody fragments. An assay with immobilised human GPVI was used. Typically, 300 RU of GPVI were immobilised on a research grade CM5 chip by amine reactive coupling, resulting in an Rmax of 200 RU for the bound antibody fragment. Binding kinetics were measured over a concentration range between 3.2 to 112 nM in HBS-EP (10 mM HEPES pH 7.4, 150 mM NaCl, 3 mM EDTA, 0.005% Surfactant P20) at a flow rate of 30 μl/min. Chip surfaces were regenerated with 10 mM glycine pH2.0. Kinetic parameters were analysed and calculated in the BIAevaluation program package (version 4.1) using a flow cell without immobilised GPVI as reference. A 1:1 binding model with mass transfer was applied for a global fit of the data for curves corresponding to analyte concentrations from 3-56 nM of Fab fragment.
Note that the Biacore assay used to measure the data in this example is different in terms of immobilized binding partner (GPVI versus the mAb/Fab fragment) and this leads to the different Biacore affinities as reported in Table 5.

human GPVI on platelets = target: T2, human GPVI on platelets (human, UniProt Q9HCN6 21-339); test: cell-based or functional assay
T2 sequence (looked up): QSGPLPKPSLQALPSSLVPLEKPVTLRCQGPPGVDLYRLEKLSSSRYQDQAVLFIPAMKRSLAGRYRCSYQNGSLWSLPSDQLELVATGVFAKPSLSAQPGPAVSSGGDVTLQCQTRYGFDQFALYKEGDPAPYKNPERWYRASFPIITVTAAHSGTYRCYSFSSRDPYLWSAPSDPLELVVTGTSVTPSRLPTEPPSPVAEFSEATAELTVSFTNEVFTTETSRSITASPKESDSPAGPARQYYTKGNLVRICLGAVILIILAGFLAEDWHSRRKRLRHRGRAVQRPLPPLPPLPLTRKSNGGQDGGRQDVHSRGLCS

hGPVI-hFc fusion protein [2] = target: T3, hGPVI-hFc fusion protein (human); test: DELFIA competition assay: Fab preincubated with GPVI-Fc (3 µg/ml), binding to collagen-coated plate, Test 2
T3 construct: also called GPVI-Fc; human GPVI-Fc fusion protein
Protocol: (§1) Collagen coated 384 well plates (Pierce) were blocked with 3% BSA for 2 h. Increasing concentrations of anti GPVI Fab fragments (0.3-20 μg/ml) were incubated with recombinant GPVI (Fusion protein of the extracellular domain of GPVI and Fc-Part of human IgG; 3 μg/ml). The GPVI-Fab mixture was added to collagen coated plates and incubated for 1 h at RT. 384 well plates were washed (DELFIA wash buffer, Perkin Elmer) five times and Eu-labelled anti-human IgG (100 ng/ml Perkin Elmer) was added. Following 1 h incubation at room temperature plates were washed again five times, enhancement solution (Perkin Elmer) was added and incubated for 10 min. Fluorescence was detected at 360/612 nm using a Tecan Ultra reader. Shown in Table 15 are examples of the inhibitory effect of recombinantly produced anti-GPVI Fab fragments on GPVI collagen binding.

hGPVI-hFc fusion protein [3] = target: T3, hGPVI-hFc fusion protein; test: DELFIA competition assay: Fab preincubated with GPVI-Fc (3 µg/ml), binding to collagen-coated plate, Test 1
Protocol: as §1

[4] = target: T1, human GPVI protein, soluble …; test: SPR (Biacore 3000), Fab immobilised, human GPVI analyte
Protocol: Surface plasmon resonance technology on a Biacore 3000 (GE Healthcare) was used for detailed kinetic characterization of purified antibody fragments. A direct binding assay was used with the anti-GPVI Fab as the ligand and human GPVI as analyte. Typically, 500 RU of anti-GPVI Fab were immobilized on a research grade CM5 chip by amine reactive coupling, resulting in an Rmax of 200 RU for the bound GPVI molecule. Binding kinetics were measured over a concentration range typically between 0.8 to 208 nM in HBS-EP (10 mM HEPES pH 7.4, 150 mM NaCl, 3 mM EDTA, 0.005% Surfactant P20) at a flow rate of 30 μl/min. Chip surfaces were regenerated with 10 mM glycine pH 2.0. Kinetic parameters were analyzed and calculated in the BIAevaluation program package (version 4.1) using a flow cell without immobilized Fab as reference. A 1:1 binding model with mass transfer was applied for a global fit of the data for curves.

hGPVI-hFc fusion protein [5] = target: T3, hGPVI-hFc fusion protein; test: DELFIA competition assay: Fab preincubated with GPVI-Fc (3 µg/ml), binding to collagen-coated plate, Test 3
Protocol: as §1

Binder | Kd [1] | koff [1] | kon [1] | IC50 for inhibition of collagen induced platelet aggregation (human PRP), Test 1 (human GPVI on platelets) | IC50 for inhibition of collagen induced platelet aggregation (human PRP), Test 2 (human GPVI on platelets) | IC50 for inhibition of collagen induced platelet aggregation (human PRP), Test 3 (human GPVI on platelets) | IC50 (hGPVI-hFc fusion protein [2]) | IC50 (hGPVI-hFc fusion protein [3]) | Kd [4] | koff [4] | kon [4] | IC50 (hGPVI-hFc fusion protein [5])
humanized anti-GPVI Fab VL1/VH2 (Fab, V domains shown, Recombinant Fab: VH fused to CH1 of human IGHG1 (Q569F4), HC ends in DKTHT; VL fused to human constant kappa (Q502W4); also called VL1 with VH2) VH: QVQLQESGPGLVAPSQSLSITCTVSGFSLTGYGVNWVRQPPSRGLEWLGMIWGDGSTDYQSTLKSRLSISKDNSKSQVFLKMNSLTTDDTARYYCARDLPMDYWGQGTSVTVSS VL: DIQMTQSPSSLSASVGGRVTITCKASQDINKYIAWYQHKPGKGPSLLIHYTSTLQPGVPSRFSGSGSGRDYSFSISNLQPEDIATYYCLQYANLLTFGGGTKLEIKR | 0.2 nM | 3e-05 s⁻¹ | 113000 M⁻¹ s⁻¹ | 2.3 µg/mL | 2 µg/mL | 1.1 µg/mL | 0.82 µg/mL | 1.17 µg/mL |  |  |  | 
Fab 390-G (recombinant glycosylated Fab of clone 390) (Fab, V domains shown, additional N-glycosylation motif in VH kept, Chimeric Fab from HEK293: VL fused to human constant kappa (IGKC, Q502W4), VH to CH1 of human IGHG1 (Q569F4)) VH: QVQLKESGPGLVAPSQSLSITCTVSGFSLTGYGVNWVRQPPGKGLEWLGMIWGDGSTDYNSTLKSRLSISKDNSKSQVFLKMNSLQTDDTARYYCARDLPMDYWGQGTSVTVSS VL: DIQMTQSPSSLSASLGGKVTITCKASQDINKYIAWYQHKPGKGPSLLIHYTSTLQPGIPSRFSGSGSGRDYSFSISNLEPEDIATYYCLQYANLLTFGGGTKLEIKR |  |  |  |  |  |  |  |  | 0.05 nM | 1.5e-05 s⁻¹ | 320000 M⁻¹ s⁻¹ | 
humanized anti-GPVI Fab VL1/VH4 (Fab, V domains shown, Recombinant Fab: VH fused to CH1 of human IGHG1 (Q569F4), HC ends in DKTHT; VL fused to human constant kappa (Q502W4); also called VL1 with VH4) VH: QVQLQESGPGLVAPSQSLSITCTVSGFSLTYYGVNWVRQPPSRGLEWLGMIWGDGSTDYQSTLKSRLSISKDNSKSQVFLKMNSLTTDDTARYYCARDLPMDYWGQGTSVTVSS VL: DIQMTQSPSSLSASVGGRVTITCKASQDINKYIAWYQHKPGKGPSLLIHYTSTLQPGVPSRFSGSGSGRDYSFSISNLQPEDIATYYCLQYANLLTFGGGTKLEIKR | 0.2 nM | 2e-05 s⁻¹ | 124000 M⁻¹ s⁻¹ | 1.6 µg/mL | 1.8 µg/mL | 1.2 µg/mL | 1.14 µg/mL | 1.01 µg/mL |  |  |  | 1.06 µg/mL
humanized anti-GPVI Fab VL2/VH2 (Fab, V domains shown, Recombinant Fab: VH fused to CH1 of human IGHG1 (Q569F4), HC ends in DKTHT; VL fused to human constant kappa (Q502W4); also called VL2 with VH2) VH: QVQLQESGPGLVAPSQSLSITCTVSGFSLTGYGVNWVRQPPSRGLEWLGMIWGDGSTDYQSTLKSRLSISKDNSKSQVFLKMNSLTTDDTARYYCARDLPMDYWGQGTSVTVSS VL: DIQMTQSPSSLSASVGGRVTITCKASQDINKYIAWYQHKPGKGPSLLIHYTSTLQPGVPSRFSGSGSGRDYSFSISNLQPEDIATYYCLQYAHLLTFGGGTKLEIKR | 0.3 nM | 3e-05 s⁻¹ | 108000 M⁻¹ s⁻¹ | 1.4 µg/mL | 2.4 µg/mL | 2.3 µg/mL | 0.73 µg/mL | 0.81 µg/mL |  |  |  | 1.05 µg/mL
